Patent US20050129672, “Regulatory sequences that direct gene expression to spinal motor neurons and uses thereof” (published 2005)

Columns and labels:
[1] = molecular target: HOXC8 + PBX1 (UniProt P31273;P40424 P31273:1-242,P40424:1-430); experiment: EMSA; no retarded complex with PBX1; conditions: tags: pSG5-derived vectors, reticulocyte lysate; label: DIG
Experimental: (§1) PBX1 and HOX proteins used in this study were produced in vitro from the corresponding pSG5-derived expression vectors using a T7 polymerase-based coupled transcription-translation reticulocyte lysate system (Promega, Madison, Wis.). EMSA were performed according to the instruction of DIG gel shift kit (Roche). Briefly, 2 μl of double-stranded DIG-labeled oligonucleotides were incubated with 2 μl of in vitro-translated proteins in 20 μl of binding buffer (20 mM Hepes pH 7.6, 1 mM EDTA, 10 mM (NH₄)₂SO_{4, 1} mM DTT, 0.2%(w/v) Tween 20, 30 mM KCl in the presence of 1 μg of poly (dI-dC) and 0.1 μg of poly L-lysine) for 30 min at room temperature. Pre-binding reactions of unlabeled competitor oligonucleotides at ˜100-fold molar excess occurred for 15 minutes at room temperature. The incubation mixture was resolved by electrophoresis and served for chemiluminescent detection according to recommended conditions of DIG gel shift kit (Roche). DIG-labeled DNA probes used were generated by annealing complementary oligonucleotides:
(§2) Next, a representative subset of HOX proteins was tested for cooperative DNA binding with Pbx 1, to both the wild-type and a mutated 40 bp sequence derived from the 125 bp Hb9 enhancer (FIG. 6D). […] No binding was detected with PBX1 alone (lane 1), or with either of the HOX proteins alone. […]

[2] = molecular target: HOXD9 + PBX1 (UniProt P28356;P40424 P28356:1-352,P40424:1-430); experiment: EMSA; no retarded complex with PBX1; conditions: tags: pSG5-derived vectors, reticulocyte lysate; label: DIG
Experimental: as §1, §2

[3] = molecular target: HOXB1 + PBX1 (UniProt P14653;P40424 P14653:1-301,P40424:1-430); experiment: EMSA; cooperative complex; abolished by anti-PBX1 antibody; 20 mM Hepes pH 7.6, 30 mM KCl, poly(dI-dC), RT; conditions: tags: pSG5-derived vectors, reticulocyte lysate; label: DIG
Experimental: as §1, §2

[4] = molecular target: T1, PBX1 (UniProt P40424 P40424:1-430); experiment: EMSA; PBX1 alone; conditions: tags: pSG5-derived vector, reticulocyte lysate; label: DIG
T1 sequence: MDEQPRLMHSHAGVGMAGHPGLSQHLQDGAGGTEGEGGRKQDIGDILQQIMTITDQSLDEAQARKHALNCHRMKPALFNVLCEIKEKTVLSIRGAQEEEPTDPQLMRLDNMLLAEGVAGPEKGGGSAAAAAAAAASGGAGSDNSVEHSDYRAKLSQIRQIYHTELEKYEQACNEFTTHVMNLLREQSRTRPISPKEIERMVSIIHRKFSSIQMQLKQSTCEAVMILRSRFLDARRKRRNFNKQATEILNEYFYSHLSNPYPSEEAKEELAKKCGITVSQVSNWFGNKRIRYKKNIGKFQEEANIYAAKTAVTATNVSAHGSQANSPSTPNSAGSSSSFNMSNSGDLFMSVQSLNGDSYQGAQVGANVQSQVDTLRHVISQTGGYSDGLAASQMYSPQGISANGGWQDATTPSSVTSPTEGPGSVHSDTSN
Experimental: as §1, §2

[5] = molecular target: HOXB3 + PBX1 (UniProt P14651;P40424 P14651:1-431,P40424:1-430); experiment: EMSA; cooperative complex; 20 mM Hepes pH 7.6, 30 mM KCl, poly(dI-dC), RT; conditions: tags: pSG5-derived vectors, reticulocyte lysate; label: DIG
Experimental: as §1, §2

[6] = molecular target: HOXB3 (UniProt P14651 P14651:1-431); experiment: EMSA; HOX alone; conditions: tags: pSG5-derived vector, reticulocyte lysate; label: DIG
Experimental: as §1, §2

[7] = molecular target: HOXB1 (UniProt P14653 P14653:1-301); experiment: EMSA; HOX alone; conditions: tags: pSG5-derived vector, reticulocyte lysate; label: DIG
Experimental: as §1, §2

Chain of HOXC8 + PBX1 (P31273 whole entry, one chain of several): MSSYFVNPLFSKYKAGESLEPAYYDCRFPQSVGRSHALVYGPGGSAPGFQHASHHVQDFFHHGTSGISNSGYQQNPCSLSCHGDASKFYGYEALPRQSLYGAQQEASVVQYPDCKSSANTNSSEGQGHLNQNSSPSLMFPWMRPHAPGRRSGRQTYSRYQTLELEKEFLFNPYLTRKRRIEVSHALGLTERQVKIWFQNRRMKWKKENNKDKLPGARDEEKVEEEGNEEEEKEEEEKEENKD
Chain of HOXB1 + PBX1 (P14653 whole entry, one chain of several): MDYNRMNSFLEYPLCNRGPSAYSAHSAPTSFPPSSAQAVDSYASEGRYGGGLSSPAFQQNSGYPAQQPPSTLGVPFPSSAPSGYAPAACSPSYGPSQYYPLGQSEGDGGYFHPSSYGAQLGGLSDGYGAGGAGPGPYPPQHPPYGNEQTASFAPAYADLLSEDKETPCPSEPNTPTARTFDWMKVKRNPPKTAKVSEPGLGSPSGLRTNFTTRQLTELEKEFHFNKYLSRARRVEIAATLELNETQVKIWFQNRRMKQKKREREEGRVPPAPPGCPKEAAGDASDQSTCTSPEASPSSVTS
Chain of HOXB1 (P14653 whole entry, one chain of several): as above
Chain of HOXB3 + PBX1 (P14651 whole entry, one chain of several): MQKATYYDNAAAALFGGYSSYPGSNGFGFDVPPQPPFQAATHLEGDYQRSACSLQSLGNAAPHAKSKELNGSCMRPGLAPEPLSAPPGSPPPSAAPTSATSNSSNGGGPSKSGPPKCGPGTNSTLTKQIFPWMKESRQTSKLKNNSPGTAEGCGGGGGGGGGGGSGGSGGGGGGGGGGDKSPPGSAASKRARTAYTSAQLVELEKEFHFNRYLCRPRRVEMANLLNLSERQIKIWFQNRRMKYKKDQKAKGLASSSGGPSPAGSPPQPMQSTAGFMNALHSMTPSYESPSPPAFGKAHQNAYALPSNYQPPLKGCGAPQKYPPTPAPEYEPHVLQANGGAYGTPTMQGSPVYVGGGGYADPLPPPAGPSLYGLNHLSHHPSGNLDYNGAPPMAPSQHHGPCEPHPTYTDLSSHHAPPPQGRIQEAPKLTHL
Chain of HOXB3 (P14651 whole entry, one chain of several): as above
Chain of HOXD9 + PBX1 (P28356 whole entry, one chain of several): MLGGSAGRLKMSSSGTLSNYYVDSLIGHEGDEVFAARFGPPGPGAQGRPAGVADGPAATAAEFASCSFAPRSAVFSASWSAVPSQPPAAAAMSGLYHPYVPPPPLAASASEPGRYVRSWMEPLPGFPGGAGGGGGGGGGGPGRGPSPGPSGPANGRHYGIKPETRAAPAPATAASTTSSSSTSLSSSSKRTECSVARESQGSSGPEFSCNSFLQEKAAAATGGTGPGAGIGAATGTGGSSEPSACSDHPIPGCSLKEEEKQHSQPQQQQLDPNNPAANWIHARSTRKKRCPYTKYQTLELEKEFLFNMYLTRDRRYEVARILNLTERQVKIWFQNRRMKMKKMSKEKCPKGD

B1: Hb9 125 bp enhancer wild-type 40 bp probe (dsDNA)
DNA 1: GTACGTTAGCTGATGAATTGACAAAAACTAATCAGCTTTA
DNA 2: TAAAGCTGATTAGTTTTTGTCAATTCATCAGCTAACGTAC
binding result [1]: no binding
binding result [2]: no binding
binding result [3]: binds
binding result [4]: no binding
binding result [5]: binds
binding result [6]: no binding
binding result [7]: no binding
